± gives the uncertainty stated by the source.
B1: KAT8 regulatory NSL complex subunit 2, residues 28 to 91; numbered along this chain, Q9H9L4 (parent)
chain: CAFTHRPCSHPRLEGQEFCIKHILEDKNAPFKQCSYISTKNGKRCPNAAPKPEKKDGVSFCAEH

Variants of: B1
Assay: abundance fitness (aPCA) (normalised: wild type 0, dead -1); higher = more abundant; growth selection in yeast, the domain comes from the species named
Details: Homo sapiens

Row | Variant | abundance fitness
1 | CAFTHRPCSHPRLEGQEFCIKHILEDKNAPFKQCSYISTKNGKRCPMAAPKPEKKDGVSFCAEH [N47M] | -0.074 ± 0.06
2 | CAFTHRPCSHPRLEGQEFCIKHILEDKNAPFKQCSYISTKNGKRCPQAAPKPEKKDGVSFCAEH [N47Q] | 0.061 ± 0.079
3 | CAFTHRPCSHPRLEGQEFCIKHILEDKNAPFKQCSYISTKNGKRCPKAAPKPEKKDGVSFCAEH [N47K] | -0.076 ± 0.067
4 | CAFTHRPCSHPRLEGQEFCIKHILEDKNAPFKQCSYISTKNGKRCPSAAPKPEKKDGVSFCAEH [N47S] | -0.035 ± 0.064
5 | CAFTHRPCSHPRLEGQEFCIKHILEDKNAPFKQCSYISTKNGKRCPHAAPKPEKKDGVSFCAEH [N47H] | -0.118 ± 0.079
6 | CAFTHRPCSHPRLEGQEFCIKHILEDKNAPFKQCSYISTKNGKRCPTAAPKPEKKDGVSFCAEH [N47T] | -0.057 ± 0.083
7 | CAFTHRPCSHPRLEGQEFCIKHILEDKNAPFKQCSYISTKNGKRCPYAAPKPEKKDGVSFCAEH [N47Y] | -0.132 ± 0.083
8 | CAFTHRPCSHPRLEGQEFCIKHILEDKNAPFKQCSYISTKNGKRCPIAAPKPEKKDGVSFCAEH [N47I] | -0.107 ± 0.078
9 | CAFTHRPCSHPRLEGQEFCIKHILEDKNAPFKQCSYISTKNGKRCPLAAPKPEKKDGVSFCAEH [N47L] | -0.053 ± 0.047
10 | CAFTHRPCSHPRLEGQEFCIKHILEDKNAPFKQCSYISTKNGKRCPPAAPKPEKKDGVSFCAEH [N47P] | -0.511 ± 0.073
11 | CAFTHRPCSHPRLEGQEFCIKHILEDKNAPFKQCSYISTKNGKRCPFAAPKPEKKDGVSFCAEH [N47F] | 0.006 ± 0.086
12 | CAFTHRPCSHPRLEGQEFCIKHILEDKNAPFKQCSYISTKNGKRCPVAAPKPEKKDGVSFCAEH [N47V] | -0.063 ± 0.047
13 | CAFTHRPCSHPRLEGQEFCIKHILEDKNAPFKQCSYISTKNGKRCPWAAPKPEKKDGVSFCAEH [N47W] | -0.079 ± 0.061
14 | CAFTHRPCSHPRLEGQEFCIKHILEDKNAPFKQCSYISTKNGKRCPRAAPKPEKKDGVSFCAEH [N47R] | -0.062 ± 0.065
15 | CAFTHRPCSHPRLEGQEFCIKHILEDKNAPFKQCSYISTKNGKRCPEAAPKPEKKDGVSFCAEH [N47E] | -0.049 ± 0.06
16 | CAFTHRPCSHPRLEGQEFCIKHILEDKNAPFKQCSYISTKNGKRCPGAAPKPEKKDGVSFCAEH [N47G] | -0.076 ± 0.073
17 | CAFTHRPCSHPRLEGQEFCIKHILEDKNAPFKQCSYISTKNGKRCPNPAPKPEKKDGVSFCAEH [A48P] | -0.079 ± 0.054
18 | CAFTHRPCSHPRLEGQEFCIKHILEDKNAPFKQCSYISTKNGKRCPNQAPKPEKKDGVSFCAEH [A48Q] | -0.238 ± 0.058
19 | CAFTHRPCSHPRLEGQEFCIKHILEDKNAPFKQCSYISTKNGKRCPNHAPKPEKKDGVSFCAEH [A48H] | -0.336 ± 0.19
20 | CAFTHRPCSHPRLEGQEFCIKHILEDKNAPFKQCSYISTKNGKRCPNSAPKPEKKDGVSFCAEH [A48S] | -0.168 ± 0.051
21 | CAFTHRPCSHPRLEGQEFCIKHILEDKNAPFKQCSYISTKNGKRCPNRAPKPEKKDGVSFCAEH [A48R] | -0.166 ± 0.045

Row | Variant | abundance fitness
22 | CAFTHRPCSHPRLEGQEFCIKHILEDKNAPFKQCSYISTKNGKRCPNEAPKPEKKDGVSFCAEH [A48E] | -0.28 ± 0.074
23 | CAFTHRPCSHPRLEGQEFCIKHILEDKNAPFKQCSYISTKNGKRCPNVAPKPEKKDGVSFCAEH [A48V] | -0.178 ± 0.056
24 | CAFTHRPCSHPRLEGQEFCIKHILEDKNAPFKQCSYISTKNGKRCPNNAPKPEKKDGVSFCAEH [A48N] | -0.293 ± 0.098
25 | CAFTHRPCSHPRLEGQEFCIKHILEDKNAPFKQCSYISTKNGKRCPNYAPKPEKKDGVSFCAEH [A48Y] | -0.167 ± 0.086
26 | CAFTHRPCSHPRLEGQEFCIKHILEDKNAPFKQCSYISTKNGKRCPNCAPKPEKKDGVSFCAEH [A48C] | -0.078 ± 0.092
27 | CAFTHRPCSHPRLEGQEFCIKHILEDKNAPFKQCSYISTKNGKRCPNMAPKPEKKDGVSFCAEH [A48M] | -0.159 ± 0.053
28 | CAFTHRPCSHPRLEGQEFCIKHILEDKNAPFKQCSYISTKNGKRCPNIAPKPEKKDGVSFCAEH [A48I] | -0.204 ± 0.065
29 | CAFTHRPCSHPRLEGQEFCIKHILEDKNAPFKQCSYISTKNGKRCPNLAPKPEKKDGVSFCAEH [A48L] | -0.16 ± 0.046
30 | CAFTHRPCSHPRLEGQEFCIKHILEDKNAPFKQCSYISTKNGKRCPNFAPKPEKKDGVSFCAEH [A48F] | -0.204 ± 0.075
31 | CAFTHRPCSHPRLEGQEFCIKHILEDKNAPFKQCSYISTKNGKRCPNWAPKPEKKDGVSFCAEH [A48W] | -0.333 ± 0.062
32 | CAFTHRPCSHPRLEGQEFCIKHILEDKNAPFKQCSYISTKNGKRCPNAAEKPEKKDGVSFCAEH [P50E] | 0.095 ± 0.2
33 | CAFTHRPCSHPRLEGQEFCIKHILEDKNAPFKQCSYISTKNGKRCPNAAFKPEKKDGVSFCAEH [P50F] | -0.135 ± 0.062
34 | CAFTHRPCSHPRLEGQEFCIKHILEDKNAPFKQCSYISTKNGKRCPNAARKPEKKDGVSFCAEH [P50R] | -0.106 ± 0.069
35 | CAFTHRPCSHPRLEGQEFCIKHILEDKNAPFKQCSYISTKNGKRCPNAAYKPEKKDGVSFCAEH [P50Y] | -0.249 ± 0.079
36 | CAFTHRPCSHPRLEGQEFCIKHILEDKNAPFKQCSYISTKNGKRCPNAAGKPEKKDGVSFCAEH [P50G] | -0.211 ± 0.066
37 | CAFTHRPCSHPRLEGQEFCIKHILEDKNAPFKQCSYISTKNGKRCPNAACKPEKKDGVSFCAEH [P50C] | -0.1 ± 0.074
38 | CAFTHRPCSHPRLEGQEFCIKHILEDKNAPFKQCSYISTKNGKRCPNAAIKPEKKDGVSFCAEH [P50I] | -0.184 ± 0.078
39 | CAFTHRPCSHPRLEGQEFCIKHILEDKNAPFKQCSYISTKNGKRCPNAAVKPEKKDGVSFCAEH [P50V] | -0.204 ± 0.07
40 | CAFTHRPCSHPRLEGQEFCIKHILEDKNAPFKQCSYISTKNGKRCPNAAWKPEKKDGVSFCAEH [P50W] | -0.287 ± 0.098
41 | CAFTHRPCSHPRLEGQEFCIKHILEDKNAPFKQCSYISTKNGKRCPNAAKKPEKKDGVSFCAEH [P50K] | -0.176 ± 0.14
42 | CAFTHRPCSHPRLEGQEFCIKHILEDKNAPFKQCSYISTKNGKRCPNAASKPEKKDGVSFCAEH [P50S] | -0.104 ± 0.054

From the Human Domainome abundance scans (Beltran et al. 2025)
